Experimental findings from US20130052198A1, “ANTI-INFLAMMATORY FACTORS” (THE GENERAL HOSPITAL CORPORATION, priority 2010, published 2013) are described below.

Assay [1] deals with leukocytes. Put plainly: IFN-γ production by LPS-stimulated leukocytes, ELISA. The class given is cell-based, human. How it is done:
(§1) Leukocytes were prepared from fresh whole human blood, collected and spun in the presence of Ficoll for 30 minutes at 1500×g. The mononuclear cell layer was transferred to a new tube where it was washed once with RPMI 1640. The mononuclear cells were plated at a density of 1×10^5 per well of a 96-well plate in 50 μL of RPMI 1640 per well. MSC-CM was then immediately added to each well and allowed to incubate in the presence of the mononuclear cells for 16 hours. After incubation, 50 μL of RPMI 1640 containing 10 μg/mL of LPS was added to each well and allowed to incubate for an additional 5 hours. The resultant supernatants were collected and analyzed via ELISA for human interleukin-10 (IL-10). This procedure of incubating leukocytes with MSC-CM to determine IL-10 stimulating activity will be henceforth referred to as the “IL-10 assay”.
(§2) Preparations and use of MSC-CM, Fb-CM, LPS-stimulated MSC-CM, leukocytes were as described in Examples 1-3 and the Figures. These conditioned media preparations were added to leukocyte cultures for 16 hours, after which the culture was stimulated with LPS at 10 μg/ml. The medium from this culture was collected 24 hours after LPS stimulation of leukocytes and analyzed using an IFN-γ ELISA.

Assay [2] concerns human leukocytes in culture. Briefly: Cytokine production (IL-10 or IFN-γ) in human leukocytes in culture. The note with it: concentrations within five orders of magnitude of 10 μg/mL. The format is cell-based. How it is done: as §1, §2
The test system of assay [3] is human peripheral blood mononuclear cells (PBMCs). Put plainly: PBMC potency assay (IL-10 assay): IL-10 secretion by LPS-stimulated PBMCs, ELISA. The format is cell-based. The note with it: recombinant molecules diluted in RPMI 1640. From the text: FIG. 1: MSC conditioned medium causes peripheral blood mononuclear cells to secrete IL-10 in response to LPS, providing the basis for differential gene expression analysis to identify genes responsible for the increased activity. (a) Generalized schematic of EPS methodology. Protein products are derived from various cell types in the form of conditioned media and screened for activity in an in vitro potency assay. […] Recombinant protein products of the enriched gene list are then screened in a potency assay and the candidates with the highest activity are assessed for activity in vivo. (b) In vitro potency assay. This assay entails incubating primary human peripheral blood mononuclear cells (PBMCs) in the presence of protein products (e.g., conditioned medium from a cell) for 16 hours, followed by stimulation of the PBMCs with LPS for five hours, and measurement of IL-10 secretion into the supernatant via ELISA. (c) Time course of IL-10 expression from PBMCs when incubated with either bone marrow stromal cell conditioned medium (BMSC-CM) or unconditioned medium (DMEM) in the potency assay. (d) Comparison of potency assay activity of conditioned medium from normal human dermal fibroblasts (FB-CM), BMSCs (BMSC-CM) and BMSCs preincubated with LPS prior to conditioning (BMSCLPS-CM). * p<0.001 compared to FB-CM, ** p<0.001 compared to BMSC-CM. (e) Schematic of the differential gene expression comparison strategy to select for genes uniquely expressed at high levels in LPS stimulated MSCs (MSCLPS) compared to MSCs and fibroblasts (FBs). Analysis was then conducted on the genes identified to select for genes that were most likely to be responsible for secreted proteins. MSCLPS, LPS stimulated MSC; FB, fibroblast. […]
Leukocytes were prepared from fresh whole human blood, collected and spun in the presence of Ficoll for 30 minutes at 1500×g. […] The resultant supernatants were collected and analyzed via ELISA for human interleukin-10 (IL-10). […]
A general note: In an ELISA, binding on a coated surface is turned into a signal by an enzyme label.

In assay [4] the test system is colitic mice (TNBS colitis). Briefly: TNBS colitis in mice, colon histopathology. The format is in vivo. The note with it: 3 μg protein twice over 24 h; sacrifice at day 2; compared to vehicle (saline). How it is done: FIG. 6: Administered MFAP5 and LGALS3BP protect mice from developing TNBS colitis. Mice were presensitized via the skin with 1% TNBS one week prior to intra-rectal administration of 3 mg of TNBS per mouse in a mixture of 50% EtOH and 50% sterile water to induce colitis. Mice were treated with 3 μg each of MFAP5, LGALS3BP and GALNT1 twice over a 24 hour period, once in conjunction with the TNBS administration and once 24 hours later. Mice were then sacrificed at day 2 and tissue collected for analysis. As expected, mice treated with vehicle (saline) developed extensive inflammation of the colon with loss of crypts and frank necrosis of the intestinal epithelium.
MFAP5, LGALS3BP and PENK all protected the colonic epithelium from the hallmark features of TNBS colitis: necrosis, inflammatory infiltrate and loss of crypts. Especially at the microscopic level, the tissue of the MFAP5, LGALS3BP and PENK treated animals looked mostly normal with minor foci of inflammation and edema.

Assay [5] concerns BALB/cJ mice challenged with a sub-lethal dose of LPS. Put plainly: In vivo LPS assay, sub-lethal LPS model: serum cytokines and lung histology. How it is done: (§3) FIG. 8: In vivo hit screen and survival study. (a) Schematic of the in vivo LPS assay. Proteins were administered intraperitoneal (IP) at the concentration that elicited the strongest effect in vitro, followed by IP administration of LPS in conjunction with a second dose of the proteins 16 hours later. Two days after the combined LPS and second protein dose, the mice were sacrificed and assessed for changes in serum cytokines and tissue histology. (b) Serum IL-10 levels of BALB/cJ mice subjected to the in vivo LPS assay. * p<0.001 compared to saline. (c) Serum TNF-α levels of BALB/cJ mice subjected to the in vivo LPS assay. * p<0.001 compared to saline, ** p<0.05 compared to BMSC-CM. (d) Representative micrographs of lung tissue from mice subjected to the in vivo LPS assay stained with hematoxylin and eosin. (e) Survival of mice subjected to a lethal dose of LPS i.p. (350 μg) concurrently with i.p. saline vehicle (bold dark blue line), 5 μg Anti-TNF-α antibody (thin dark blue line), 4 μg PENK (bold light blue line) or 4 μg MFAP5 (thin light blue line). Scale bar=200 μm.
All procedures were performed in accordance with the animal rights policies of the Massachusetts General Hospital Subcommittee on Research Animal Care. For the sub-lethal LPS model, eight week old female BALB/cJ mice (n≧3) (Jackson Laboratories, Bar Harbor, Me.) were administered an initial dose of either vehicle or one of the experimental therapies IP: 200 μL of saline (vehicle), or 3 μg of protein (e.g., GALNT1, LGALS3BP, MFAP5 or PENK) diluted in 200 μL of saline, or 1 mL of 1×BMSC-CM. 16 hours later, mice received a second dose of either vehicle or therapy in conjunction with a dose of 100 μg of LPS (E. coli 0111:B4; Sigma, St. Louis, Mo.) diluted in physiological saline. 48 hours later, mice were sacrificed and tissue and blood were collected for analysis. Serum was tested for the presence of IL-10 and TNF-α via ELISA and lungs, livers and kidneys of the animals were preserved for hematoxylin and eosin staining. For the lethal LPS model, eight week old female BALB/cJ mice (n≧5) were co-administered a lethal dose of LPS (350 μg LPS in 100 μL physiological saline) and either vehicle (negative control), 5 μg anti-TNF-α (positive control; R&D Systems, Minneapolis, Minn.), 4 μg MFAP5 diluted in 100 μL of physiological saline, or 4 μg of PENK diluted in 100 μL of physiological saline. Mice were monitored for survival for seven days (168 hours).

Assay [6] has as its system BALB/cJ mice challenged with a lethal dose of LPS. Briefly: Lethal LPS model, survival. The class given is in vivo. The note with it: 350 μg LPS i.p. with 4 μg protein; monitored seven days. How it is done:
as §3
All procedures were performed in accordance with the animal rights policies of the Massachusetts General Hospital Subcommittee on Research Animal Care. […] Mice were monitored for survival for seven days (168 hours).

The mark [7] stands for this setting: 3 μg protein or 1 mL 1×BMSC-CM IP, twice, 100 μg LPS, 48 h later, compared to saline.

“Also recorded” adds a separate entry of the source.

B1: HAPLN1: Hyaluronan and proteoglycan link protein 1; purified, recombinant form (protein, UniProt P10915 16-354, looked up)
Hyaluronan and proteoglycan …: DHLSDNYTLDHDRAIHIQAENGPHLLVEAEQAKVFSHRGGNVTLPCKFYRDPTAFGSGIHKIRIKWTKLTSDYLKEVDVFVSMGYHKKTYGGYQGRVFLKGGSDSDASLVITDLTLEDYGRYKCEVIEGLEDDTVVVALDLQGVVFPYFPRLGRYNLNFHEAQQACLDQDAVIASFDQLYDAWRGGLDWCNAGWLSDGSVQYPITKPREPCGGQNTVPGVRNYGFWDKDKSRYDVFCFTSNFNGRFYYLIHPTKLTYDEAVQACLNDGAQIAKVGQIFAAWKILGYDRCDAGWLADGSVRYPISRPRRRCSPTEAAVRFVGFPDKKHKLYGVYCFRAYN
As to B1, the “IFN-γ production of leukocytes stimulated with LPS” value in assay [1] (16 h incubation, LPS 10 μg/ml, medium collected 24 h after LPS) is on record as “independently reduce IFN-γ production”. Also, in assay [1] (HAPLN1 diluted in RPMI 1640), the “dose-dependency of IFN-γ production” value was “dose-dependency of IFN-γ production over several orders of magnitude”. Moreover, in assay [2], the “promote IL-10 production or suppress IFN-γ production” value is recorded as “either promote IL-10 production or suppress IFN-γ production”.

B2: MFAP5: Microfibrillar-associated protein 5, ECM glycoprotein; recombinant form tested (protein, UniProt Q13361 22-173, looked up)
Microfibrillar-associated …: IPLGVNSQRGDDVTQATPETFTEDPNLVNDPATDETVLAVLADIAPSTDDLASLSEKNTTAECWDEKFTCTRLYSVHRPVKQCIHQLCFTSLRRMYIVNKEICSRLVCKEHEAMKDELCRQMAGLPPRRLRRSNYFRLPPCENVDLQRPNGL
Regarding B2, the “increase of IL-10 production compared to 10×MSC-CM” value in assay [3] was “superior to that induced by 10×MSC-CM”. In addition, in assay [4], the “protection from TNBS colitis (colon histopathology)” value was “protect the mice from developing acute colitis; also recorded: significant attenuation of colitis; also recorded: protected from developing extensive colonic inflammation”. Besides, in assay [5] (setting [7]), the “serum IL-10 levels” value was “Significantly elevated” and the “serum TNF-α” value is recorded as “significantly suppressed”. In assay [5] (hematoxylin and eosin, sub-lethal LPS model, compared to vehicle), the “lung histology (lung protection)” value is listed as “superior lung protection”. The “TNF-α suppression compared to BMSC-CM” value in assay [5] (serum, sub-lethal LPS model) is “superior TNF-α suppression”. The survival entry in assay [6] was “significant survival benefit”. Besides, the “promote IL-10 production or suppress IFN-γ production” value in assay [2] was “either promote IL-10 production or suppress IFN-γ production”.
